Test results published in PMC12623744 (Scientific Reports, 2025).
Read-outs that look alike come from different tables or passages of the source. Positions of bridges follow the written chain, without caps; N, C: chain ends. Residues, ends and D or L forms follow the SMILES beside them.

How the values were obtained:
[1] = system: HVEM/LIGHT interaction (NF-κB::eGFP activation); assay: Cellular reporter assay: JE6.1-NF-κB::eGFP HVEM reporter cells stimulated with TCS LIGHT; format: cell-based; details: relative to co-culture without peptides = 100%; highest tested concentration (50 µM chosen as highest); 24 h co-culture; three experiments in triplicate
Excerpt: Reporter cells expressing the HVEM protein (JE6.1-NF-κB::eGFP HVEM) and T cell stimulators expressing LIGHT (TCS LIGHT) were utilized in cellular assays and the principle of this cell-based assay has been described in detail in previous publication. In short, when the peptides inhibited the HVEM/LIGHT interaction, a reduction in NF-κB activation was observed, accompanied by a corresponding decrease in enhanced green fluorescent protein (eGFP) levels. The percentage of reporter cell activation was calculated relative to a control condition, which was reporter cell co-cultured with TCS without peptides.
The experiments utilized the JE6.1-NF-κB::eGFP HVEM (modified Jurkat), TCS LIGHT, TCS Crtl and TCS CD86 Ctrl cell lines (modified BW5147) which have been described in earlier studies^57,58. Jurkat E6.1 cell line (describe in Supplementary Materials) was purchased from Cell Line Service GmbH, while the JE6.1-NF-κB::eGFP HVEM, TCS LIGHT, TCS Crtl and TCS CD86 Ctrl cell lines are property of the laboratory of Prof. […] The plates were incubated for 20 min at 4 °C, washed with FACS buffer (PBS, 5–10% FBS, 0.1% NaN₃), and resuspended in 50 µL of fresh FACS buffer. eGFP expression was measured using a CytoFLEX flow cytometer (Beckman Coulter, USA). Data were analyzed using FlowJo v10.10 (FlowJo LLC, USA) and GraphPad Prism (San Diego, USA) with univariate ANOVA and Dunnett’s post-hoc test. […]

HVEM/LIGHT complex = assay: Competitive ELISA, inhibition of HVEM/LIGHT complex formation; format: biochemical, human; details: coated HVEM-His 6 µg/mL, LIGHT-Fc 2 µg/mL, highest concentration tested (50 µM)
Experimental: To assess the inhibitory properties of the peptides the ELISA was conducted. Based on the obtained results, it can be concluded that the inhibitory properties of the peptides are strongly correlated with their affinity to HVEM as determined by theoretical methods, as well as with those measured by SpS.
ELISA was conducted using transparent polystyrene 96-well plates (Brand, Wertheim, Germany). Wells were coated with HVEM-His protein at concentration 6 µg/mL dissolved in PBS-T (100 µL per well) and incubated overnight at 4 °C. Unbound sites on the wells by HVEM were blocked with 5% bovine serum albumin (BSA) in PBS-T (200 µL per well). Peptides at three concentrations 50 µM, 12.5 µM, and 3.125 µM dissolved in PBS-T were added and incubated (200 µL per well). […] In the next step horseradish peroxidase (HRP)-conjugated goat antibody (Bio-Rad, Hercules, USA) at dilution 1:3000 in PBS-T (100µL per well) was applied. After each step, wells were washed five times with 200 µL of PBS-T. Incubations were carried out at 37 °C for 2 h, except for the antibody, which was incubated for 1 h. Finally, 200 µL of TMB substrate (Thermo Fisher Scientific,Waltham, MA, USA) was added, and after 15 min of incubation in the dark, absorbance was measured at 492 nm and 650 nm using an Infinite M200 Pro reader (Tecan, Switzerland). The negative control consisted of PBS-T buffer without peptides, while the positive control was mouse anti-human HVEM antibodies (1 µg/well, Bio-Rad, Hercules, CA, USA; #MCA6072GA). Each experiment was performed in three biological replicates, each consisting of three technical replicates and data were analyzed using one-way ANOVA with Dunnett’s post-hoc test in GraphPad Prism (San Diego, USA).

LIGHT protein = LIGHT protein (UniProt O43557 1-240); assay: spectral shift (SpS); Monolith X; HVEM-His labelled with His-Tag Labeling Kit RED-tris-NTA 2nd Generation, final 50 nM; peptides 2 µM to 6.1 pM; PBS-T (0.05% Tween-20, 0.3 M NaCl, pH 7.4); fluorescence ratio 670/650 nm; 25 °C; apparent Kd (peptides aggregated at higher concentrations); details: both partners purified
HVEM-His protein [2] = target: T1, HVEM-His protein (Homo sapiens, UniProt Q92956); assay: Spectral shift (SpS) affinity of peptides to HVEM; format: binding; details: spectral shift (Monolith X, 670/650 nm), 50 nM RED-tris-NTA labelled HVEM-His, ligand 2 µM to 6.1 pM, PBS-T pH 7.4 with 0.3 M NaCl, 25 °C; mean of triplicate; apparent, approximate value only
T1 construct: purchased ACROBiosystems
T1 sequence (Q92956 39-283): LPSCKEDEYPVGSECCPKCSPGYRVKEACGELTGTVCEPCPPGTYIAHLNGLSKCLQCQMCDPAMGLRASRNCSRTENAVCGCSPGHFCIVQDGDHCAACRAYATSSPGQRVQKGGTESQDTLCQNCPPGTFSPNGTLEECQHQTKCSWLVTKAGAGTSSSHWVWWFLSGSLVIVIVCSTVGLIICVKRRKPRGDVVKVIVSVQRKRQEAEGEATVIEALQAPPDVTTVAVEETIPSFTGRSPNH
Experimental: Based on the computer analyses conducted for the designed peptides in complex with the HVEM, five compounds – peptides light1, light2, light3, light4, and light3_E178L were selected for experimental validation and their affinity to HVEM was evaluated using SpS.Fluorescence intensity was measured at 670 and 650 nm (Figure S4). […] Due to the fact that peptides at higher concentrations aggregated, it was not possible to fully determine the Kd. Therefore, only the apparent Kd values were determined and were used for HVEM binding strength comparison. Note that apparent Kd is only approximate value and should be used only for qualitative comparison.
SpS experiments were conducted using the Monolith X instrument (Nanotemper, Munich, Germany). Protein labelling was performed using the His-Tag Labeling Kit RED-tris-NTA 2nd Generation (Nanotemper, Munich, Germany). To prepare the fluorescent dye solution at concentration 0.1 µM, 2 µL of a 5 µM dye stock was diluted in 98 µL of deionized water. […] The mixtures were loaded into Monolith X-compatible capillary tubes, and fluorescence ratios (670/650 nm) were measured at 40% excitation power and average IR laser power at a temperature of 25 °C. Data were analyzed using MO.Control 2 software (version 2.5.4, NanoTemper, Munich, Germany). […]

HVEM-His protein [3] = target: T1, HVEM-His protein; details: SpS technique; previously determined by the authors; read-out: Kd of LIGHT binding to HVEM; cited from earlier work
HVEM = target: HVEM; parameters: method as in 2 sources, ref 11 = [11]; PMID 25087510; doi:10.1016/j.str.2014.06.013; 11. Liu W Mechanistic basis for functional promiscuity in the TNF and TNF receptor superfamilies: structure of the LIGHT:DcR3 assembly Structure 2014 22 1252 10.1016/j.str.2014.06.013 25087510 PMC4163 ||| ref 41 = [41]; PMID 20175993; doi:10.1016/j.bbrc.2010.02.119; 41. Morishige T Creation of a lysine-deficient LIGHT mutant with the capacity for site-specific pegylation and low affinity for a decoy receptor Biochem. Biophys. Res. Commun. 2010 393 888 893 10.1016; details: other research group, read-out: Kd of HVEM/LIGHT complex, cited from earlier work

With `CC(=O)N[C@H](C(=O)N[C@H]1CSSC[C@@H](C(=O)N[C@@H](CO)C(N)=O)NC(=O)[C@H](CCC(N)=O)NC(=O)[C@H](CO)NC(=O)[C@H](C(C)C)NC(=O)[C@H](CC(C)C)NC(=O)[C@H](CC(C)C)NC(=O)[C@H](CCC(=O)O)NC(=O)[C@H](CC(C)C)NC(=O)[C@H](CCC(=O)O)NC(=O)[C@H](CCC(=O)O)NC(=O)[C@@H]2CCCN2C(=O)[C@H](Cc2ccc(O)cc2)NC(=O)[C@H](CCCNC(=N)N)NC(=O)[C@@H]2CCCN2C(=O)[C@H]([C@@H](C)O)NC(=O)[C@H](CCCNC(=N)N)NC(=O)[C@H](CCCCN)NC(=O)[C@H](Cc2ccc(O)cc2)NC(=O)[C@H](CC(C)C)NC(=O)CNC(=O)[C@H](Cc2c[nH]cn2)NC(=O)[C@H]([C@@H](C)O)NC1=O)[C@@H](C)O` [light3] (Ac-TCTHGLYKRTPRYPEELELLVSQCS-NH2; disulfide 2-24) the “reporter cell activation level” value [1] was 78% and the “inhibition of HVEM/LIGHT complex formation” value (HVEM/LIGHT complex) was 22%.

In the case of `CC(=O)N[C@H](C(=O)N[C@H]1CSSC[C@@H](C(=O)N[C@@H](CO)C(N)=O)NC(=O)[C@H](CCC(N)=O)NC(=O)[C@H](CO)NC(=O)[C@H](C(C)C)NC(=O)[C@H](CC(C)C)NC(=O)[C@H](CC(C)C)NC(=O)[C@H](CC(C)C)NC(=O)[C@H](CC(C)C)NC(=O)[C@H](CCC(=O)O)NC(=O)[C@H](CCC(=O)O)NC(=O)[C@@H]2CCCN2C(=O)[C@H](Cc2ccc(O)cc2)NC(=O)[C@H](CCCNC(=N)N)NC(=O)[C@@H]2CCCN2C(=O)[C@H]([C@@H](C)O)NC(=O)[C@H](CCCNC(=N)N)NC(=O)[C@H](CCCCN)NC(=O)[C@H](Cc2ccc(O)cc2)NC(=O)[C@H](CC(C)C)NC(=O)CNC(=O)[C@H](Cc2c[nH]cn2)NC(=O)[C@H]([C@@H](C)O)NC1=O)[C@@H](C)O` [light3_E178L] (Ac-TCTHGLYKRTPRYPEELLLLVSQCS-NH2; disulfide 2-24), the “reporter cell activation level” value [1] is reported as 74% and the “inhibition of HVEM/LIGHT complex formation” value (HVEM/LIGHT complex) is reported as 19%.

B1: HVEM-His protein (receptor, UniProt Q92956 39-202, looked up)
chain: LPSCKEDEYPVGSECCPKCSPGYRVKEACGELTGTVCEPCPPGTYIAHLNGLSKCLQCQMCDPAMGLRASRNCSRTENAVCGCSPGHFCIVQDGDHCAACRAYATSSPGQRVQKGGTESQDTLCQNCPPGTFSPNGTLEECQHQTKCSWLVTKAGAGTSSSHWV
modifications: labelled with RED-tris-NTA 2nd Generation dye on the His tag (spectral shift only)
notes: Herpes virus entry mediator (HVEM); No catalogue number printed; also called herpes virus entry mediator; source: bought: ACROBiosystems
For B1, the Kd (LIGHT protein) was 920 nM.

B2: LIGHT: LIGHT protein, TNFSF ligand of HVEM (protein)
chain: MEESVVRPSVFVVDGQTDIPFTRLGRSHRRQSCSVARVGLGLLLLLMGAGLAVQGWFLLQLHWRLGEMVTRLPDGPAGSWEQLIQERRSHEVNPAAHLTGANSSLTGSGGPLLWETQLGLAFLRGLSYHDGALVVTKAGYYYIYSKVQLGGVGCPLGLASTITHGLYKRTPRYPEELELLVSQQSPCGRATSSSRVWWDSSFLGGVVHLEAGEKVVVRVLDERLVRLRDGTRSYFGAFMV
For B2, the Kd (HVEM-His protein [2]) is listed as 920 nM, the Kd (HVEM-His protein [3]) is listed as 920 nM and the Kd (HVEM; ref 11) is listed as 18.7 nM. The Kd (HVEM; ref 41) was 1.5 nM.
